# Reference: patent publication US20260139055A1
# Target: canine FcRn complex (FcRn-alpha subunit and beta-microglobulin), His-tagged, biotin labeled (canine)
# Test: SPR (Biacore), biotin-FcRn captured on SA surface, IgG flowed over, pH 6, 15 C
row,Binder,Kd
1,"canine IgGB (65) mAb with mutation Y436L (antibody, part only; not given: variable domains of unnamed mAb, not shown: another chain or arm of the molecule) constant: ASTTAPSVFPLAPSCGSTSGSTVALACLVSGYFPEPVTVSWNSGSLTSGVHTFPSVLQSSGLYSLSSMVTVPSSRWPSETFTCNVAHPASKTKVDKPVPKRENGRVPRPPDCPKCPAPEMLGGPSVFIFPPKPKDTLLIARTPEVTCVVVDLDPEDPEVQISWFVDGKQMQTAKTQPREEQFNGTYRVVSVLPIGHQDWLKGKQFTCKVNNKALPSPIERTISKARGQAHQPSVYVLPPSREELSKNTVSLTCLIKDFFPPDIDVEWQSNGQQEPESKYRTTPPQLDEDGSYFLYSKLSVDKSRWQRGDTFICAVMHEALHNHLTQESLSHSPGK",4.26 nM
2,"canine IgGB (65) mAb with mutation T286M (antibody, part only; not given: variable domains of unnamed mAb, not shown: another chain or arm of the molecule) constant: ASTTAPSVFPLAPSCGSTSGSTVALACLVSGYFPEPVTVSWNSGSLTSGVHTFPSVLQSSGLYSLSSMVTVPSSRWPSETFTCNVAHPASKTKVDKPVPKRENGRVPRPPDCPKCPAPEMLGGPSVFIFPPKPKDTLLIARTPEVTCVVVDLDPEDPEVQISWFVDGKQMQMAKTQPREEQFNGTYRVVSVLPIGHQDWLKGKQFTCKVNNKALPSPIERTISKARGQAHQPSVYVLPPSREELSKNTVSLTCLIKDFFPPDIDVEWQSNGQQEPESKYRTTPPQLDEDGSYFLYSKLSVDKSRWQRGDTFICAVMHEALHNHYTQESLSHSPGK",5.23 nM
3,"canine IgGB (65) mAb with mutation Y436P (antibody, part only; not given: variable domains of unnamed mAb, not shown: another chain or arm of the molecule) constant: ASTTAPSVFPLAPSCGSTSGSTVALACLVSGYFPEPVTVSWNSGSLTSGVHTFPSVLQSSGLYSLSSMVTVPSSRWPSETFTCNVAHPASKTKVDKPVPKRENGRVPRPPDCPKCPAPEMLGGPSVFIFPPKPKDTLLIARTPEVTCVVVDLDPEDPEVQISWFVDGKQMQTAKTQPREEQFNGTYRVVSVLPIGHQDWLKGKQFTCKVNNKALPSPIERTISKARGQAHQPSVYVLPPSREELSKNTVSLTCLIKDFFPPDIDVEWQSNGQQEPESKYRTTPPQLDEDGSYFLYSKLSVDKSRWQRGDTFICAVMHEALHNHPTQESLSHSPGK",668 nM
4,"canine IgGB (65) mAb with mutation Y436M (antibody, part only; not given: Variable domains, not shown: another chain or arm of the molecule) constant: ASTTAPSVFPLAPSCGSTSGSTVALACLVSGYFPEPVTVSWNSGSLTSGVHTFPSVLQSSGLYSLSSMVTVPSSRWPSETFTCNVAHPASKTKVDKPVPKRENGRVPRPPDCPKCPAPEMLGGPSVFIFPPKPKDTLLIARTPEVTCVVVDLDPEDPEVQISWFVDGKQMQTAKTQPREEQFNGTYRVVSVLPIGHQDWLKGKQFTCKVNNKALPSPIERTISKARGQAHQPSVYVLPPSREELSKNTVSLTCLIKDFFPPDIDVEWQSNGQQEPESKYRTTPPQLDEDGSYFLYSKLSVDKSRWQRGDTFICAVMHEALHNHMTQESLSHSPGK",9.51 nM
5,"canine IgGB (65) mAb with mutation Y436Q (antibody, part only; not given: Variable domains, not shown: another chain or arm of the molecule) constant: ASTTAPSVFPLAPSCGSTSGSTVALACLVSGYFPEPVTVSWNSGSLTSGVHTFPSVLQSSGLYSLSSMVTVPSSRWPSETFTCNVAHPASKTKVDKPVPKRENGRVPRPPDCPKCPAPEMLGGPSVFIFPPKPKDTLLIARTPEVTCVVVDLDPEDPEVQISWFVDGKQMQTAKTQPREEQFNGTYRVVSVLPIGHQDWLKGKQFTCKVNNKALPSPIERTISKARGQAHQPSVYVLPPSREELSKNTVSLTCLIKDFFPPDIDVEWQSNGQQEPESKYRTTPPQLDEDGSYFLYSKLSVDKSRWQRGDTFICAVMHEALHNHQTQESLSHSPGK",4.74 nM
6,"canine IgGB (65) mAb with mutation T286K (antibody, part only; not given: Variable domains, not shown: another chain or arm of the molecule) constant: ASTTAPSVFPLAPSCGSTSGSTVALACLVSGYFPEPVTVSWNSGSLTSGVHTFPSVLQSSGLYSLSSMVTVPSSRWPSETFTCNVAHPASKTKVDKPVPKRENGRVPRPPDCPKCPAPEMLGGPSVFIFPPKPKDTLLIARTPEVTCVVVDLDPEDPEVQISWFVDGKQMQKAKTQPREEQFNGTYRVVSVLPIGHQDWLKGKQFTCKVNNKALPSPIERTISKARGQAHQPSVYVLPPSREELSKNTVSLTCLIKDFFPPDIDVEWQSNGQQEPESKYRTTPPQLDEDGSYFLYSKLSVDKSRWQRGDTFICAVMHEALHNHYTQESLSHSPGK",7.04 nM
7,"canine IgGB (65) mAb with mutation Y436N (antibody, part only; not given: variable domains of unnamed mAb, not shown: another chain or arm of the molecule) constant: ASTTAPSVFPLAPSCGSTSGSTVALACLVSGYFPEPVTVSWNSGSLTSGVHTFPSVLQSSGLYSLSSMVTVPSSRWPSETFTCNVAHPASKTKVDKPVPKRENGRVPRPPDCPKCPAPEMLGGPSVFIFPPKPKDTLLIARTPEVTCVVVDLDPEDPEVQISWFVDGKQMQTAKTQPREEQFNGTYRVVSVLPIGHQDWLKGKQFTCKVNNKALPSPIERTISKARGQAHQPSVYVLPPSREELSKNTVSLTCLIKDFFPPDIDVEWQSNGQQEPESKYRTTPPQLDEDGSYFLYSKLSVDKSRWQRGDTFICAVMHEALHNHNTQESLSHSPGK",7.27 nM

# Results, then the binder that gave them:
row,Kd,Binder
1,3.87 nM,"canine IgGB (65) mAb with mutation Y436W (antibody, part only; not given: variable domains of unnamed mAb, not shown: another chain or arm of the molecule) constant: ASTTAPSVFPLAPSCGSTSGSTVALACLVSGYFPEPVTVSWNSGSLTSGVHTFPSVLQSSGLYSLSSMVTVPSSRWPSETFTCNVAHPASKTKVDKPVPKRENGRVPRPPDCPKCPAPEMLGGPSVFIFPPKPKDTLLIARTPEVTCVVVDLDPEDPEVQISWFVDGKQMQTAKTQPREEQFNGTYRVVSVLPIGHQDWLKGKQFTCKVNNKALPSPIERTISKARGQAHQPSVYVLPPSREELSKNTVSLTCLIKDFFPPDIDVEWQSNGQQEPESKYRTTPPQLDEDGSYFLYSKLSVDKSRWQRGDTFICAVMHEALHNHWTQESLSHSPGK"
2,5.56 nM,"canine IgGB (65) mAb with mutation Y436V (antibody, part only; not given: variable domains of unnamed mAb, not shown: another chain or arm of the molecule) constant: ASTTAPSVFPLAPSCGSTSGSTVALACLVSGYFPEPVTVSWNSGSLTSGVHTFPSVLQSSGLYSLSSMVTVPSSRWPSETFTCNVAHPASKTKVDKPVPKRENGRVPRPPDCPKCPAPEMLGGPSVFIFPPKPKDTLLIARTPEVTCVVVDLDPEDPEVQISWFVDGKQMQTAKTQPREEQFNGTYRVVSVLPIGHQDWLKGKQFTCKVNNKALPSPIERTISKARGQAHQPSVYVLPPSREELSKNTVSLTCLIKDFFPPDIDVEWQSNGQQEPESKYRTTPPQLDEDGSYFLYSKLSVDKSRWQRGDTFICAVMHEALHNHVTQESLSHSPGK"
3,3.83 nM,"canine IgGB (65) mAb with mutation Y436R (antibody, part only; not given: Variable domains, not shown: another chain or arm of the molecule) constant: ASTTAPSVFPLAPSCGSTSGSTVALACLVSGYFPEPVTVSWNSGSLTSGVHTFPSVLQSSGLYSLSSMVTVPSSRWPSETFTCNVAHPASKTKVDKPVPKRENGRVPRPPDCPKCPAPEMLGGPSVFIFPPKPKDTLLIARTPEVTCVVVDLDPEDPEVQISWFVDGKQMQTAKTQPREEQFNGTYRVVSVLPIGHQDWLKGKQFTCKVNNKALPSPIERTISKARGQAHQPSVYVLPPSREELSKNTVSLTCLIKDFFPPDIDVEWQSNGQQEPESKYRTTPPQLDEDGSYFLYSKLSVDKSRWQRGDTFICAVMHEALHNHRTQESLSHSPGK"
4,8.65 nM,"canine IgGB (65) mAb with mutation Y436T (antibody, part only; not given: Variable domains, not shown: another chain or arm of the molecule) constant: ASTTAPSVFPLAPSCGSTSGSTVALACLVSGYFPEPVTVSWNSGSLTSGVHTFPSVLQSSGLYSLSSMVTVPSSRWPSETFTCNVAHPASKTKVDKPVPKRENGRVPRPPDCPKCPAPEMLGGPSVFIFPPKPKDTLLIARTPEVTCVVVDLDPEDPEVQISWFVDGKQMQTAKTQPREEQFNGTYRVVSVLPIGHQDWLKGKQFTCKVNNKALPSPIERTISKARGQAHQPSVYVLPPSREELSKNTVSLTCLIKDFFPPDIDVEWQSNGQQEPESKYRTTPPQLDEDGSYFLYSKLSVDKSRWQRGDTFICAVMHEALHNHTTQESLSHSPGK"
5,5.97 nM,"canine IgGB (65) mAb with mutation Y436S (antibody, part only; not given: variable domains of unnamed mAb, not shown: another chain or arm of the molecule) constant: ASTTAPSVFPLAPSCGSTSGSTVALACLVSGYFPEPVTVSWNSGSLTSGVHTFPSVLQSSGLYSLSSMVTVPSSRWPSETFTCNVAHPASKTKVDKPVPKRENGRVPRPPDCPKCPAPEMLGGPSVFIFPPKPKDTLLIARTPEVTCVVVDLDPEDPEVQISWFVDGKQMQTAKTQPREEQFNGTYRVVSVLPIGHQDWLKGKQFTCKVNNKALPSPIERTISKARGQAHQPSVYVLPPSREELSKNTVSLTCLIKDFFPPDIDVEWQSNGQQEPESKYRTTPPQLDEDGSYFLYSKLSVDKSRWQRGDTFICAVMHEALHNHSTQESLSHSPGK"
